Columns and labels:
Assay in all cases: AVEXIS screen signal:noise (double-corrected)
ADP098 = biological target: T1, ADP098
T1 chain: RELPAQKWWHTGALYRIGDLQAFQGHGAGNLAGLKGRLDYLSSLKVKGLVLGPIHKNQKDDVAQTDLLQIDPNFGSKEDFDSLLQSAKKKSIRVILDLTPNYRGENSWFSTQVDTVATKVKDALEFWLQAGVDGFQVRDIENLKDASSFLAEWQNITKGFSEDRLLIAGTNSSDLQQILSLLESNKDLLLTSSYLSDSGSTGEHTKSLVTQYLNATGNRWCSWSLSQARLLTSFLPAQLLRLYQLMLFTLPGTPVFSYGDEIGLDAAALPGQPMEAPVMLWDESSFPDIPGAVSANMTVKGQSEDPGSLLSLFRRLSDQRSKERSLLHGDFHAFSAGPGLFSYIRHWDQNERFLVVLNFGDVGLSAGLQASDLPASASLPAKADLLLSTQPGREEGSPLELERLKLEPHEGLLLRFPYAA

ADP339 = biological target: T2, ADP339
T2 chain: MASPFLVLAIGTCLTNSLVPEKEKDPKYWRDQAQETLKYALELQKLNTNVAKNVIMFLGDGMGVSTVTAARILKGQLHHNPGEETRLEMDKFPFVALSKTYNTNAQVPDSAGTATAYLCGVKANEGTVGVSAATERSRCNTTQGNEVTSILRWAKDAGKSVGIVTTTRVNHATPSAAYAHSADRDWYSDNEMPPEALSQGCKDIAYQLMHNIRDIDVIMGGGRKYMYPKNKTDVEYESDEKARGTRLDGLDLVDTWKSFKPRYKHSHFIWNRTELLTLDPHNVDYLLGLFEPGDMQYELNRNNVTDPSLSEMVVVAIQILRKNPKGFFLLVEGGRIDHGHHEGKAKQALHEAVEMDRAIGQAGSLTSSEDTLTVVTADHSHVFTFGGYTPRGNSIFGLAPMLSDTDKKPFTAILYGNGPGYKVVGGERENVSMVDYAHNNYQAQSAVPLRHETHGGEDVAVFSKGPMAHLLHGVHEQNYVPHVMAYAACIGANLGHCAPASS

ADP389 = biological target: T3, ADP389
T3 chain: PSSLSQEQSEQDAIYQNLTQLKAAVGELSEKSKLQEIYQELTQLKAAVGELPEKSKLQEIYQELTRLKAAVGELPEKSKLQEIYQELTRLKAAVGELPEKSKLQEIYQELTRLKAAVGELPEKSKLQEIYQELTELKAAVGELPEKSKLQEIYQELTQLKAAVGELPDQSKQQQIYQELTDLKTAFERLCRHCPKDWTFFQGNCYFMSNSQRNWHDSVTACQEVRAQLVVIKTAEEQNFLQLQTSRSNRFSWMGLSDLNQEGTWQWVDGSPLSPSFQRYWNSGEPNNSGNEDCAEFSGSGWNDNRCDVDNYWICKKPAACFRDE

ADP269 = biological target: T4, ADP269
T4 chain: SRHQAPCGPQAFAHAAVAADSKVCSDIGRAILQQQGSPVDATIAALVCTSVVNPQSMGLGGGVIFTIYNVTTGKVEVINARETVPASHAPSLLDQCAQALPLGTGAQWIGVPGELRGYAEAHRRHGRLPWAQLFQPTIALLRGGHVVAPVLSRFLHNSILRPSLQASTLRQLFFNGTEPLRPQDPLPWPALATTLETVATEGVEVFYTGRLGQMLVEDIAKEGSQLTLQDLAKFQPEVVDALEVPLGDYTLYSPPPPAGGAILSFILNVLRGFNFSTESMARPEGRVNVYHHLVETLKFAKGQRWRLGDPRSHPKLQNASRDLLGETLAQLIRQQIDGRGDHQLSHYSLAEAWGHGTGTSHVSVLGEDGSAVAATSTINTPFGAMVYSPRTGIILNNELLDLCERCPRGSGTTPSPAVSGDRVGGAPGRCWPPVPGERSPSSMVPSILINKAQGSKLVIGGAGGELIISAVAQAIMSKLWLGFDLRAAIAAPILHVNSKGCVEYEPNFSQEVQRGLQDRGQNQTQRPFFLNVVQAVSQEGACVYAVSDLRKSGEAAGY

B1: ADP169 (protein)
chain: LIRNSNTPQAFLIPELNNNEKNEFNNNEKNEMNNNLNNEFNNNEENCDIQKIAEEMMENLLNENDMYTNIMLSLQNRLSDDYLCSEPKYENICIHEKDKISLSFPCSNPKYEKLIHKFTFKKLCNSKAAFNNALLKSFIEEDEEQNTFSLMLKQFKILLTCVDDELKDIYKESIDLLVDLKTSITELTQKLWSGKMVNVLKKREFLITGILCELRNGNKAPLISKSLEFENLGILKMNNEELLNEAYNAFSDYYYFFPYFIQKLLEKGGMIERLIKIHENLAKYRTKDMVNKINAQSKGEVLNNEDILNKLNAYKHYTKHGATSFIQSREVKIVNQNVNNDDTTKNQQQNVNNNEKLNNNNNNNNNQQVNNNNNNNNQQVNNNNNNNNNQVNNNNNNNNNQVNNNNYNNNNQVNNNNNNNQQVNNNNNYNNQLNNNNFNNNLQVNKNDKHVPKNNHATATHTNNILYNPLYSINPEKPKDIIKLLKDLIKYLHIVKFENNEPTTNIDEEGIRKLLENSFFDLNDDILIVRLLLKPQTVILTVIQSFMLMTPSPSRDAKAYCKKALINDQLVPTNDANILSEENELVNNFATKYVLIYEKMKLQELKEMEESKLKMKYSKTNLAALQVTNPQNNKDKNDASNKNNNPNNAATPLIAVVTDLSGEKTEDIINNNVDIATLSVGVQNTFQGP
modifications: bait human Fc-tagged dimer; N-glycosylation sequons mutated in Plasmodium baits
- binding score (ADP098): 11.2

B2: ADP246 (protein)
chain: GLCKPCTLENHYCEGGLESDITFNNKLIKGKFHTLPKKCPRGLGIPNIIKERNSINNCLCIHGKVQRTTENKNVECFPCPPNTFKENEYDNSCSGACPPFSTTFVGSSYENQCFCKNNYYLVSTDDENDANGNSINNNKNIYNNNNIYNNNNNNNNNNNNNFNNKADVKKKSCKICPIGAICNRGFNIYIYLKLLNDRSYNNINVIDHETPFPKYGYYAVYREKTNPAKSWDTLDDSAILNYVYPYHKLLLFIQKNIQKGNYFFLEKGNKFFLNDDFVEKMNEKSKYEEENANKFVTKSEIIHNVNTNNLKGKHNTLNNNNNNNNINKASSFLNQNNYNNDIIQLSSYENNPFKNLASTSEVSSNNNVISFIQNNDKTNNAANDNNIENLVDIFNKYVQEAKELQIQNRKFERIPDIHPCTIPNRCLGTLINLCSDGSTGYQCNNCAKNYDMSYFKSKCKKCQNLFYE
modifications: bait human Fc-tagged dimer; N-glycosylation sequons mutated in Plasmodium baits
- binding score (ADP339): 15.5

B3: ADP236 (protein)
chain: EFVKGSYESKGYPLIHLMNNNEYTGSANNFIKNNLINLLYIYKDVKFDEEKTLGIDSFLDIEDDTKIERLIKEKMLYINKYINSRQMIKYSGFIYLYEIIEKKNFYFLLHFLMTNNNNGLIIILPEDMYINVDEYYRINKINKLNDQNKKNKVVSQDLLEKRIMFVQSLILNMKLQQSIYFIKNNKDIEKIYENYQSKFAYFDLTRNVAISPISKIQNVYKMNSKSLYYFLNKNNNIHINTIFNKQQDNQAFLLTKQKTIIICADFNVFNIFSDLPSNTAFTNSNLITIQNLIKLFYDVYNKEQVNYNILFFFTNYYYGIQDFLNSINVIFKENIEFVICLDNLNNADFYIYESNKAQPQNVQAFYRILNNIVKGSIKKNVQMVNEKIKIHSKHLPSLHEYFVLNKINSFSLSSSKKNNNMIFLNKFPMLQPKLNIQNVKNNIAIIFKSLYLYMTQKKTDQKENTQQEQSIEKNEKEKSMLTYINKNMASNDDMNTIDYNLNKYNKFFIYKEDTLKLFNYFKTIINSNIADTNFLIKDYKLTTDKKQKFFYQKYAHVTFSMAISYVFH
modifications: bait human Fc-tagged dimer; N-glycosylation sequons mutated in Plasmodium baits
- binding score (ADP389): 5.5

B4: ADP191 (protein)
chain: IYYCNDNILENANNDDSTKDINNINKNSANKAKSEKTSNYNNDQYNIDDAYNEDEENDEEEGDDDENDHFEVPINCAGGNCFDSMDDINKIIDNKKKKMKYRRRRGKAIQIIKPNVNHAELIIIEENLEIFKRIDKPIAIVSVLGDMHTGKSFLLNLLNEHVIPDINKANKYIENGFKVGNDITASTYGIWIWSEPIRINVKKLKKIYEYINENFANFIKSYEYEKDEYNEEIIDLLNLYKTDDWISNVEELNLADTDEVNLILMDTQGLNSPNVNKRYDEILYALTNLISTDIIFLTMKMINNKDLEFIENIAKDANLFMLRAYTRSSGSTFSIKKNNFHKILDTLNNNLENNALILESIASKNLMWVVHDFSQRLDVRKGKLWLDILLNSDRRDLDIKYWKKIISNKAKDKHDAYTTKKQKIAYLTYNENSASGLLPNNNNNNNNANDASSNYKLNILYKNIDCVLLRNMYHNKEFDFTKANINDLNEEYKNDVLLLRYKIYLRALLFPKKMYSDVQINNIINKIRKEQKLREEQEKNKDNKKNDANNQANDLNSNKDETSGSQVTNRFMSGHDVYDFITFLVKSANQNLFTNVNQFFKHFKINRAEISRNDLIFLYKKYLLQFMENEDVEFISNLNDENDDLFLQKEGNNAAVNHDENSDADSLFNDHDENMQLKEHNIKDGEDNTHQKKDSYKLPPLLNEIKKYEELIREQILNIWYKYTESDFHDEEEKELIKDIENNLYERLDQIKIEMLELGEMNIRKFCKIACEDALQIVVEDIKMKSDQYPIKQKDLTTFFESVSYNLIKYLEKKLSKNSDKLDLIYYKDNICSPLINNAFQEFYFLKKKNIALNENRLKSYFSNAVEKGKEVFEVLAENTENIAEYFKNKNMFYTVLDKWTSEAINTYTLTLSDFAKEEKEINDEYLNVLNNDIKLLKQKAMEKWHNHCRDKTSALYNMHKSNLKKNFLENFNFPLDELVLQDIFLNLKGQEELKYMDIYCANEDSWNSEYKNFLKLTDEIFQFIKDENLKAIQITCQQPLDELKNGIKGEIHKYYLWSSLKSTLYNRALIVLSSNIENIYIKNQRENKIQSNLDEKYNNKNKNYKRISKDLMSKVINRWLNNDIYNVYYP
modifications: bait human Fc-tagged dimer; N-glycosylation sequons mutated in Plasmodium baits
- binding score (ADP269): 9.74
